T1: human PCSK1, myc-myc-his tagged (human, UniProt P29120 111-753, limits assumed)
T1 construct: also called hPCSK1-mmh; hPCSK1
T1 sequence: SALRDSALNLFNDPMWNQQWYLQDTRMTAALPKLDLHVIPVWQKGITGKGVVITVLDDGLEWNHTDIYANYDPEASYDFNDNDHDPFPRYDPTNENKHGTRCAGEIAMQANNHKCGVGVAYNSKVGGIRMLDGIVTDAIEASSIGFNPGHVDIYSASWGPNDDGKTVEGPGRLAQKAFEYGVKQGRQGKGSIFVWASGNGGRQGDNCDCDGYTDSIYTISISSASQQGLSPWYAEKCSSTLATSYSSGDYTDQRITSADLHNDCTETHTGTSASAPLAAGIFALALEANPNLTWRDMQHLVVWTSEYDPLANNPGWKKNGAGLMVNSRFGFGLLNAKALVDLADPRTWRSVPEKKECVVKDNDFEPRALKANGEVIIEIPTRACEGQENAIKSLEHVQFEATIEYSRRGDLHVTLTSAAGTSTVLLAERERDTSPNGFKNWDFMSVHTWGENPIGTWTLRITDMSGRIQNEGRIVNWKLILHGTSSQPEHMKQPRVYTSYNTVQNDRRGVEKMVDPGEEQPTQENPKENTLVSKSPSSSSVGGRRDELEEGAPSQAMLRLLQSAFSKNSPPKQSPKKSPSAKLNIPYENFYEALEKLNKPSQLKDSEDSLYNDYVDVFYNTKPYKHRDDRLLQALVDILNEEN

T2: his-tagged Syrian golden hamster (Mesocricetus auratus) PCSK9 (Syrian golden hamster (Mesocricetus …))
T2 construct: also called maPCSK9-h; maPCSK9
T2 chain: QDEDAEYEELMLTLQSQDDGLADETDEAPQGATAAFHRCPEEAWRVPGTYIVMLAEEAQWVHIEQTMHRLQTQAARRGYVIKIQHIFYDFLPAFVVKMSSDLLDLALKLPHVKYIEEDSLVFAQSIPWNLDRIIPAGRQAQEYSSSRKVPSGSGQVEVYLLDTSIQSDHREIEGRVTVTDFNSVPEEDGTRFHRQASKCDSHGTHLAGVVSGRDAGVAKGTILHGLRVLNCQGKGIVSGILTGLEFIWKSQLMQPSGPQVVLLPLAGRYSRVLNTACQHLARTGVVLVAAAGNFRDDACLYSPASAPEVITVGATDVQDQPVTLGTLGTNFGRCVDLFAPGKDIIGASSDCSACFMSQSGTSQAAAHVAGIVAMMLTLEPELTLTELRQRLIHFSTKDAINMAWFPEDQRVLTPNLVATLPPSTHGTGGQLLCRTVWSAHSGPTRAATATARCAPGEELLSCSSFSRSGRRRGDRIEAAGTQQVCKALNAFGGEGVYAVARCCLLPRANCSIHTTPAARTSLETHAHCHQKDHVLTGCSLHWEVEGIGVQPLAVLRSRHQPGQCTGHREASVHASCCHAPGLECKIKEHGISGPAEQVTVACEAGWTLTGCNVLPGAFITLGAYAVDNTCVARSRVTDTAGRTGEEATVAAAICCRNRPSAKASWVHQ

T3: Chimeric protein #3 (mPro-mCat-hC-term-mmh) (mouse; human)
T3 chain: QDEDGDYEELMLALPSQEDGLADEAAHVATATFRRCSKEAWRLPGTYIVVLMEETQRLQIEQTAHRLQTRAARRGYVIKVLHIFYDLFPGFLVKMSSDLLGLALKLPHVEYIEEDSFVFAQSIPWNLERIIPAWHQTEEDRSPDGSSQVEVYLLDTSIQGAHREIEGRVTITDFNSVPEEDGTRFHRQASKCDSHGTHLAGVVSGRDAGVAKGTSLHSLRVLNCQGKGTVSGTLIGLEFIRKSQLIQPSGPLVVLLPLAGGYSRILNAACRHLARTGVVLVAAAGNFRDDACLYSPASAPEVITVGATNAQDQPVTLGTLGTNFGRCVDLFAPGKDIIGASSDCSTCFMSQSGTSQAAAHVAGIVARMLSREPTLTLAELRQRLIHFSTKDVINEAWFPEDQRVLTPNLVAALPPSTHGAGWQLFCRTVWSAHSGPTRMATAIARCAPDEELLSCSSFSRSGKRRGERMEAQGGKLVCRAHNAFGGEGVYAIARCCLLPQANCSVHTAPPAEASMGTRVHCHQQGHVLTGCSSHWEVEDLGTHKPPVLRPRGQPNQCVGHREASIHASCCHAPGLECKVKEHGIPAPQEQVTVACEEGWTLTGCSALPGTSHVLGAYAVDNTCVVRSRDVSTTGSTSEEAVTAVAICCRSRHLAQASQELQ

B1: H1H316P (antibody, V domains shown)
VH: EVQLVESGGGLVQPGGSLRLSCAASGFTFNNYAMNWVRQAPGKGLDWVSTISGSGGTTNYADSVKGRFIISRDSSKHTLYLQMNSLRAEDTAVYYCAKDSNWGNFDLWGRGTLVTVSS
VL: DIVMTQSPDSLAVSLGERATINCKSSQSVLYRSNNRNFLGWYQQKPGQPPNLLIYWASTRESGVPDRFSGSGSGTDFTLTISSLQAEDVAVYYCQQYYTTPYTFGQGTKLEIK
notes: Fully human mAb made in CHO cells; also called mAb316P
B2: H1M300N (antibody, V domains shown)
VH: EMQLVESGGGLVQPGGSLRLSCAASGFTFSSHWMKWVRQAPGKGLEWVANINQDGSEKYYVDSVKGRFTISRDNAKNSLFLQMNSLRAEDTAVYYCARDIVLMVYDMDYYYYGMDVWGQGTTVTVSS
VL: not shown
notes: Fully human version made in CHO cells

Columns and labels:
[1] = target: T4, tagged rhesus monkey (Macaca mulata) PCSK9 (rhesus monkey (Macaca mulata), UniProt A8T666 31-692); assay: SPR, 25C
T4 construct: also called mmPCSK9-mmh; mmPCSK9
T4 sequence (A8T666 31-692 limits assumed): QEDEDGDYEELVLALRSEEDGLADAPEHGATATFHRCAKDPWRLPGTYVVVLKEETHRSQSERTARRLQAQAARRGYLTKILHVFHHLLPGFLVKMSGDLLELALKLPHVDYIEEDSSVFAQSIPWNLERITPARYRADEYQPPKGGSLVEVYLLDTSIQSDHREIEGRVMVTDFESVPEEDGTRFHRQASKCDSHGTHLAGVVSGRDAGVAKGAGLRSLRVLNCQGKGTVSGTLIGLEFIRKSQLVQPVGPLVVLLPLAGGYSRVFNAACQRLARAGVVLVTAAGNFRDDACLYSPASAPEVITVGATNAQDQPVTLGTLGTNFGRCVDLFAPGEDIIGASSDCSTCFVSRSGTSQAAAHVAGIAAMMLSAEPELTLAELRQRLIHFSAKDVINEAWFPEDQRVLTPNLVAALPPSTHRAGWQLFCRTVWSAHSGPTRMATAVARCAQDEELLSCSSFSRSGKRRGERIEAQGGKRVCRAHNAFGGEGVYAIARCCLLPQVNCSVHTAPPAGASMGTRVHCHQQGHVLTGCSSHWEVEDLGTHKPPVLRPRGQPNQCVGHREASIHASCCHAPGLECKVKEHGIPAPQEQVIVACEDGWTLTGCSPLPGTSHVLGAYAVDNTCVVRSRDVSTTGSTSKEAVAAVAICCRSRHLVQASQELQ

[2] = target: T1, human PCSK1, myc-myc-his tagged; assay: ELISA, mAb coated
hPCSK9(D238R) = target: T5, hPCSK9(D238R) (human, UniProt Q8NBP7 31-692); assay: SPR, mAb captured, 25C
T5 construct: mmh-tagged variant hPCSK9
Excerpt: (§1) Each selected antibody was captured on a F(ab′)2 anti-hIgG surface created through direct chemical coupling to a BIACORE™ chip to form a captured antibody surface.

Human PCSK9-myc-myc-his = target: T6, Human PCSK9-myc-myc-his (human, UniProt Q8NBP7 31-692); assay: SPR, mAb captured on anti-hFc, 25C
T6 construct: also called hPCSK9-mmh; hPCSK9

[3] = target: T7, mouse PCSK9, myc-myc-his tagged (mouse, UniProt Q80W65 35-694); assay: SPR, mAb captured on anti-hFc, 25C
T7 construct: also called mPCSK9-mmh; mPCSK9
T7 sequence (Q80W65 35-694 limits assumed): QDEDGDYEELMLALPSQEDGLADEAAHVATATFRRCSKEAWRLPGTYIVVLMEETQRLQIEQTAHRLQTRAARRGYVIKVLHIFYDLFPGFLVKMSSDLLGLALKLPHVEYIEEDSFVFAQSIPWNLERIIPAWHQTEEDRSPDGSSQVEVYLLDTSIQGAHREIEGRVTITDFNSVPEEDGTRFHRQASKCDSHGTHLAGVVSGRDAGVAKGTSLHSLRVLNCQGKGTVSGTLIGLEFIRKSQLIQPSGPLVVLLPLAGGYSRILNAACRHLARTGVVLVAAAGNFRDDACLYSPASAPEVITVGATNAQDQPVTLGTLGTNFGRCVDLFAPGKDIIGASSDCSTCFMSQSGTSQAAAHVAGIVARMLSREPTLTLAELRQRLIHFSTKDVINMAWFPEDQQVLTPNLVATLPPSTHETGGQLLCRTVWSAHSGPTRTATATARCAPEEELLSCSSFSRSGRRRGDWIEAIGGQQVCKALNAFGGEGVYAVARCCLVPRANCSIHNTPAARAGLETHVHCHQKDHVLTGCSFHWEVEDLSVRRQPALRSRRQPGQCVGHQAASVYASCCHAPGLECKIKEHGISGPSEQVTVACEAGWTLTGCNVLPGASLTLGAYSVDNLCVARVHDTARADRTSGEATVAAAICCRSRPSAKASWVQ

[4] = target: T7, mouse PCSK9, myc-myc-his tagged; assay: SPR, mAb amine-coupled, 25C, pH 5.5
Excerpt: (§2) Briefly, mAbs were immobilized onto BIACORE™ CM5 sensor chips via amine coupling.

[5] = target: T2, his-tagged Syrian golden hamster …; assay: SPR, mAb amine-coupled, 25C, pH 5.5
Excerpt: as §2

[6] = target: T8, rat (Rattus norvegicus) PCSK9, myc-myc-his tagged (rat (Rattus norvegicus), UniProt P59996 31-691); assay: SPR, mAb amine-coupled, 25C, pH 5.5
T8 construct: also called rPCSK9-mmh; rPCSK9
T8 sequence (P59996 31-691 limits assumed): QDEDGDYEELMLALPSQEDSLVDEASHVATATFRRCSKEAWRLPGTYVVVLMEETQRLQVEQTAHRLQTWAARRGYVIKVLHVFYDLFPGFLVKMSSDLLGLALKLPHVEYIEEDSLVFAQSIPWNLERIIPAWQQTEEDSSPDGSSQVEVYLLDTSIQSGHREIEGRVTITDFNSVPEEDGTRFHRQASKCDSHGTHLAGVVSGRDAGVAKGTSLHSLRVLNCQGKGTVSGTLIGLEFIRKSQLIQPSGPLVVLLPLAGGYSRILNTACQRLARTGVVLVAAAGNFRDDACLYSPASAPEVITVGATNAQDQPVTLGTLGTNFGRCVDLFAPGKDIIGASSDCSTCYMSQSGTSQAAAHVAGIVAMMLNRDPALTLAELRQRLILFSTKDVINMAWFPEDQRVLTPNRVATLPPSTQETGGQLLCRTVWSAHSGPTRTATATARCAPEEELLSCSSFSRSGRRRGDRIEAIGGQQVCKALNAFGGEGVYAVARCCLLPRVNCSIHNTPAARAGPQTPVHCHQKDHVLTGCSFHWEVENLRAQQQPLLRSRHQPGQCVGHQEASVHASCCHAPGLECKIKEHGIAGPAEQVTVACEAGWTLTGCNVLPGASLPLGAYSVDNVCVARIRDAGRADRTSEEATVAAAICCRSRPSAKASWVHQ
Excerpt: as §2

[7] = target: T3, Chimeric protein #3 …; assay: SPR, mAb captured on anti-hFc, 100 nM antigen
Description: Changes in RU due to the binding of each protein to the mAb surface was determined.

hPCSK9(E366K) = target: T9, hPCSK9(E366K) (human, UniProt Q8NBP7 31-692); assay: SPR, mAb captured, 25C
T9 construct: mmh-tagged variant hPCSK9
Excerpt: as §1

| Binder | T1/2 [1] | koff [1] | binding result [2] | fold reduction of binding affinity against wildtype hPCSK9 (hPCSK9(D238R)) | fold shortening of T1/2 against wildtype hPCSK9 (hPCSK9(D238R)) | Kd (Human PCSK9-myc-myc-his) | T1/2 (Human PCSK9-myc-myc-his) | Kd [3] | T1/2 [3] | Kd [4] | T1/2 [4] | Kd [5] | T1/2 [5] | Kd [6] | T1/2 [6] | change in RU [7] | fold reduction of binding against wildtype hPCSK9 (hPCSK9(E366K)) |
| --- | --- | --- | --- | --- | --- | --- | --- | --- | --- | --- | --- | --- | --- | --- | --- | --- | --- |
| B1 | 51 min | 0.000229 s⁻¹ | no binding (tested: 1.2 nM) | > 400 fold | ~30 fold | 0.58 nM | 36 min | 2.3 nM | 11 min | 0.063 nM | 11 min | 0.087 nM | 8 min | 0.349 nM | 5 min | 467 RU |  |
| B2 |  |  |  |  |  |  |  |  |  |  |  |  |  |  |  |  | ~50 fold |

— patent publication US20130064834A1 (published 2013)
